In publication doi:10.1101/2024.06.20.599739 (2024) one finds Kd data, which are given here for one molecule.

One may read the Kd as the constant that tells how readily two partners part at equilibrium. Low values mean tighter binding, high ones weaker binding.

Targets include linear 15 (); linear 19 (); linear 12 (); linear 11 ().
Experiment in all cases: SPR
On the technique in general: Surface plasmon resonance follows binding to a sensor surface in real time, without labels.

In experiment [1] the target is EvoBind2 linear design, adversarial selection, length 11.

B1: MBP-8xHis-1SCC (semi-synthetic Ribonuclease, PDB ID 1SSC) (enzyme)
chain: KETAAAKFERQHMDSSTSAASSSNYCNQMMKSRNLTKDRCKPVNTFVHESLADVQAVCSQKNVACKNGQTNCYQSYSTMSITDCRETGSSKYPNCAYKTTQANKHIIVACEG
Consider B1, for which the Kd in experiment [1] is 1.21 µM; with linear 15 () it was 4.34 µM; in the experiment with linear 19 (), 7.18 µM; with linear 12 () it was 0.728 µM; with linear 11 (), 7.54 µM.
